Measurements as given in the RNAGym collection of RNA variant scans (doi:10.7554/elife.80360).

B1: HDV Ribozyme (parent)
chain: GGCCGGCAUGGUCCCAGCCUCCUCGCUGGCGCCGGCUGGGCAACAUUCCGAGGGGACCGUCCCCUCGGUAAUGGCGAAUGGGACCCA

Variants of: B1
Assay: self-cleavage, relative activity (ratio to wild type); higher = more cleavage; co-transcriptional

| Variant | self-cleavage |
| --- | --- |
| GGCCGUCAUGGUCCCAGCCUCCUCGCUGGCGCCCGCUGGGCAACAUUCCGAGGGGACCGUCCCCUCGGUAAUGGCGAAUGGGACCCA [G6U G34C] | 0.0405 |
| GGCCGUCAUGGUCCCAGCCUCCUCGCUGGCGCCGGCUGGGCAACAUUCCGAGGGGACCGUCCCCUCGGUAACGGCGAAUGGGACCCA [G6U U72C] | 0 |
| GGCCGUCAUGGUCCCAGCCUCCUCGCUGGCGCCGGCGGGGCAACAUUCCGAGGGGACCGUCCCCUCGGUAAUGGCGAAUGGGACCCA [G6U U37G] | 0.0554 |
| GGCCGUCAUGGUCCCAGCCUCCUCGCUAGCGCCGGCUGGGCAACAUUCCGAGGGGACCGUCCCCUCGGUAAUGGCGAAUGGGACCCA [G6U G28A] | 0 |
| GGCCGUCAUGGUCCCAGCCUCCUCGCUCGCGCCGGCUGGGCAACAUUCCGAGGGGACCGUCCCCUCGGUAAUGGCGAAUGGGACCCA [G6U G28C] | 0.0739 |
| GGCCGUCAUGGUCCCAGCCUCCUCGCUGUCGCCGGCUGGGCAACAUUCCGAGGGGACCGUCCCCUCGGUAAUGGCGAAUGGGACCCA [G6U G29U] | 0.104 |
| GGCCGUCAUGGUCCCAGCCUCCUCGCUGGCGCCGGCUGGGCAACAUUCCGAGGGGACCGUCCCCUCGUUAAUGGCGAAUGGGACCCA [G6U G68U] | 0.554 |
| GGCCGUCAUGGUCCCAGCCUCCUCCCUGGCGCCGGCUGGGCAACAUUCCGAGGGGACCGUCCCCUCGGUAAUGGCGAAUGGGACCCA [G6U G25C] | 0.0426 |
| GGCCGUCAUGGUCCCAGCCACCUCGCUGGCGCCGGCUGGGCAACAUUCCGAGGGGACCGUCCCCUCGGUAAUGGCGAAUGGGACCCA [G6U U20A] | 0.0978 |
| GGCCGUCAUGGUCCCAGCCCCCUCGCUGGCGCCGGCUGGGCAACAUUCCGAGGGGACCGUCCCCUCGGUAAUGGCGAAUGGGACCCA [G6U U20C] | 0.133 |
| GGCCGGAAUGGUCCCAGCCUCCUCGGUGGCGCCGGCUGGGCAACAUUCCGAGGGGACCGUCCCCUCGGUAAUGGCGAAUGGGACCCA [C7A C26G] | 0.554 |
| GGCCGGAAUGGUCCCAGCCUCCUCGUUGGCGCCGGCUGGGCAACAUUCCGAGGGGACCGUCCCCUCGGUAAUGGCGAAUGGGACCCA [C7A C26U] | 0.919 |
| GGCCGUCAUGGUCCCAGCCUCCUCGCUGGCGCCGGCUGGGCAACAUUCCGAGGGGACCGUCCCCUCGGUAAUGUCGAAUGGGACCCA [G6U G74U] | 0.151 |
| GGCCGUCAUGGUCCCAGCCUCCUCGCUGGCGCCGGCUGGGCAACAUUCCGAGGGGACCGUCCCCUCGGUAAUGACGAAUGGGACCCA [G6U G74A] | 0.16 |
| GGCCGUCAUGGUCCCAGCCUCCUCGCUGGCUCCGGCUGGGCAACAUUCCGAGGGGACCGUCCCCUCGGUAAUGGCGAAUGGGACCCA [G6U G31U] | 0.121 |
| GGCCGGAAUGGUCCCAGCCUCCUCGCUGGCGCCGGCUGGGCAACCUUCCGAGGGGACCGUCCCCUCGGUAAUGGCGAAUGGGACCCA [C7A A45C] | 0.0462 |
| GGCCGGAAUGGUCCCAGCCUCCUCGCUGGCGCCGGCUGGGCAACGUUCCGAGGGGACCGUCCCCUCGGUAAUGGCGAAUGGGACCCA [C7A A45G] | 0.705 |
| GGCCGGAAUGGUCCCAGCCUCCUCGCUGGCGCCGGCUGGGCACCAUUCCGAGGGGACCGUCCCCUCGGUAAUGGCGAAUGGGACCCA [C7A A43C] | 0.0923 |
| GGCCGUCAUUGUCCCAGCCUCCUCGCUGGCGCCGGCUGGGCAACAUUCCGAGGGGACCGUCCCCUCGGUAAUGGCGAAUGGGACCCA [G6U G10U] | 0.0791 |
| GGCCGUCAUGGUCCCAGCCUCCUCGCUGGCGCCGGCUGGGCAACAUUCCGAGGGGACCGUCCCCUCGGUAAUGGCGAAUGGUACCCA [G6U G82U] | 0 |
| GGCCGGAAUGGUCCUAGCCUCCUCGCUGGCGCCGGCUGGGCAACAUUCCGAGGGGACCGUCCCCUCGGUAAUGGCGAAUGGGACCCA [C7A C15U] | 0.283 |
| GGCCGUCAUGGUCCCAGCCUCCUCGCUGGCGCCGGCUCGGCAACAUUCCGAGGGGACCGUCCCCUCGGUAAUGGCGAAUGGGACCCA [G6U G38C] | 0.095 |

| Variant | self-cleavage |
| --- | --- |
| GGCCGUCAGGGUCCCAGCCUCCUCGCUGGCGCCGGCUGGGCAACAUUCCGAGGGGACCGUCCCCUCGGUAAUGGCGAAUGGGACCCA [G6U U9G] | 0.511 |
| GGCCGUCAUGGUCCCAGCCUCCGCGCUGGCGCCGGCUGGGCAACAUUCCGAGGGGACCGUCCCCUCGGUAAUGGCGAAUGGGACCCA [G6U U23G] | 0.178 |
| GGCCGUCAUGGUCCCACCCUCCUCGCUGGCGCCGGCUGGGCAACAUUCCGAGGGGACCGUCCCCUCGGUAAUGGCGAAUGGGACCCA [G6U G17C] | 0.0554 |
| GGCCGUCAUGGUCCCAACCUCCUCGCUGGCGCCGGCUGGGCAACAUUCCGAGGGGACCGUCCCCUCGGUAAUGGCGAAUGGGACCCA [G6U G17A] | 0.19 |
| GGCCGGAAUGGUCCCAGCGUCCUCGCUGGCGCCGGCUGGGCAACAUUCCGAGGGGACCGUCCCCUCGGUAAUGGCGAAUGGGACCCA [C7A C19G] | 0.145 |
| GGCCGGAAUGGUCCCAGCAUCCUCGCUGGCGCCGGCUGGGCAACAUUCCGAGGGGACCGUCCCCUCGGUAAUGGCGAAUGGGACCCA [C7A C19A] | 0.0277 |
| GGCCGUCAUGGUCCCAGCCUCCUCGCUGGCGCCGGCUGGCCAACAUUCCGAGGGGACCGUCCCCUCGGUAAUGGCGAAUGGGACCCA [G6U G40C] | 0.193 |
| GGCCGUCAUGGUCCCAGCCUCCUCGCUGGCGCCGGCUGGACAACAUUCCGAGGGGACCGUCCCCUCGGUAAUGGCGAAUGGGACCCA [G6U G40A] | 0.587 |
| GGCCGUCAUGGUCCCAGCCUCCUCGCUGGCGCCGGCUGGGCAACAUUCCGAGGGGACCGUCCCCUUGGUAAUGGCGAAUGGGACCCA [G6U C66U] | 0.645 |
| GGCCGUCAUGGUCCCAGCCUCCUCGCCGGCGCCGGCUGGGCAACAUUCCGAGGGGACCGUCCCCUCGGUAAUGGCGAAUGGGACCCA [G6U U27C] | 0.237 |
| GGCCGUCAUGGUCCCAGCCUCCUCGCGGGCGCCGGCUGGGCAACAUUCCGAGGGGACCGUCCCCUCGGUAAUGGCGAAUGGGACCCA [G6U U27G] | 0.172 |
| GGCCGUCAUGGUCCCAGCCUCCUCGCUGGCGCCGGCUGGGCAACAUUCCGAGGGGACCGUCCUCUCGGUAAUGGCGAAUGGGACCCA [G6U C63U] | 0.763 |
| GGCCGUCAUGGUCCCAGCCUCCUCGCUGGCGCCGGCUGGGCAACAUUCCGAGGGGACCGUCCCCUCGGUAAUGGCGAAUCGGACCCA [G6U G80C] | 0.0898 |
| GGCCGUCAUGGUCCCAGCCUCCUCGCUGGCGCCGGCUGGGCAACAUUCCGAGGGGACCGUCCCCACGGUAAUGGCGAAUGGGACCCA [G6U U65A] | 0.431 |
| GGCCGUCAUGGUCCCAGCCUCCUCGCUGGCGCCGGCUGGGCAACAUUCCGAGGGGACCGUCCCCCCGGUAAUGGCGAAUGGGACCCA [G6U U65C] | 0.289 |
| GGCCGUCAUGGUCCCAGCCUCCUCGCUGGCGCCGGCUGGGCAACAUUCCGAGGGGACCGUCCCCUCGGUAAUUGCGAAUGGGACCCA [G6U G73U] | 0 |
| GGCCGUCAUGGUCCCAGCCUCCUCGCUGGCGCCGGCUGGGCAACAUUCCGAGGGGACCGUCCCCUCGGUAAUCGCGAAUGGGACCCA [G6U G73C] | 0.266 |
| GGCCGGAAUGGUCCCAGCCUCCUCGCUGGCGUCGGCUGGGCAACAUUCCGAGGGGACCGUCCCCUCGGUAAUGGCGAAUGGGACCCA [C7A C32U] | 0.227 |
| GGCCGGAAUGGUCCCAGCCUCCUCGCUGGCGACGGCUGGGCAACAUUCCGAGGGGACCGUCCCCUCGGUAAUGGCGAAUGGGACCCA [C7A C32A] | 0.332 |
| GGCCGUCAUGGUCCCAGCCUCCUCGCUGGCGCCGCCUGGGCAACAUUCCGAGGGGACCGUCCCCUCGGUAAUGGCGAAUGGGACCCA [G6U G35C] | 0.0437 |
| GGCCGGAAUGGUCCCAGCCUCCUGGCUGGCGCCGGCUGGGCAACAUUCCGAGGGGACCGUCCCCUCGGUAAUGGCGAAUGGGACCCA [C7A C24G] | 0.0415 |
| GGCCGGAAUGGUCCCAGCCUCCUCGCUGGCGCCGGCUGGGCAACAUUCCGAGGGGACCGUCCCCUCGGUAAUGGCGCAUGGGACCCA [C7A A77C] | 0.115 |

| Variant | self-cleavage |
| --- | --- |
| GGCCGGAAUGGUCCCAGCCUCCUCGCUGGCGCCGGCUGGGCAACAUUCCGAGGGGACCGUCCCCUCGGUAAUGGCGGAUGGGACCCA [C7A A77G] | 0.107 |
| GGCCGGAAUGGUCCCAGCCUCCUCGCUGGCGCCGGCUGGGCAACAUUCCGAGGGGACCGUCCCCUCGGUAAUGGCGUAUGGGACCCA [C7A A77U] | 0.0875 |
| GGCCGGAAUGGUCCCAGCCUCCUCGCUGGCGCCGGCUGGGCAACAUUCCGAGGGGACCGUCCCCUCGGUAAUGGCGAAUGGGACCCG [C7A A87G] | 0.521 |
| GGCCGUCAUGGUCCCAGCCUCCUCGCUGGCGCCGGCUGGGCAACAUUCCGAGGGGACCGUCCCCUCCGUAAUGGCGAAUGGGACCCA [G6U G67C] | 0.73 |
| GGCCGUCAUGGUCCCAGCCUCCUCGCUGGCGCCGGCUGGGCAACAUUCCGAAGGGACCGUCCCCUCGGUAAUGGCGAAUGGGACCCA [G6U G52A] | 0.739 |
| GGCCGUCAUGGUCCCAGCCUCCUCGCUGGCGCCGGCUGGGCAACAUUCCUAGGGGACCGUCCCCUCGGUAAUGGCGAAUGGGACCCA [G6U G50U] | 0.475 |
| GGCCGUCAUGGUCCCAGCCUCCUCGCUGGCGCCGGCUGGGCAACAUUCCAAGGGGACCGUCCCCUCGGUAAUGGCGAAUGGGACCCA [G6U G50A] | 0.372 |
| GGCCGGAAUGGUCCCAGCCUCCUCGCUGGCGCCGGCUGGGCAACAUUCCGAGGGGACCGUCCCCUCGGUAAUGGCGAAUGGGUCCCA [C7A A83U] | 0.0426 |
| GGCCGGAAUGGUCCCAGCCUCCUCGCUGGCGCCGGCUGGGCAACAUUCCGAGGGGACCGUCCCCUCGGUAAUGGCGAAUGGGGCCCA [C7A A83G] | 0.141 |
| GGCCGGAAUGGUUCCAGCCUCCUCGCUGGCGCCGGCUGGGCAACAUUCCGAGGGGACCGUCCCCUCGGUAAUGGCGAAUGGGACCCA [C7A C13U] | 0.0361 |
| GGCCGGAAUGGUGCCAGCCUCCUCGCUGGCGCCGGCUGGGCAACAUUCCGAGGGGACCGUCCCCUCGGUAAUGGCGAAUGGGACCCA [C7A C13G] | 0 |
| GGCCGGAAUGGUCCCAGUCUCCUCGCUGGCGCCGGCUGGGCAACAUUCCGAGGGGACCGUCCCCUCGGUAAUGGCGAAUGGGACCCA [C7A C18U] | 0.229 |
| GGCCGUCAUGGUCCCAGCCUCCUCGCUGGCGCCGGCUGGGCAACAUUCCGAGGGGACCGUCCCCUCGGUAAUGGCGAAUGGGAUCCA [G6U C84U] | 0.208 |
| GGCCGUCAUGGUCCCAGCCUCCUCGCUGGCGCCGGCUGGGCAACAUUCCGAGGGGACCGUCCCCUCGGUAAUGGCGAAUGGGAACCA [G6U C84A] | 0.375 |
| GGCCGUCAUGGUCCCAGCCUCCUCGCUGGCGCCGGCUGAGCAACAUUCCGAGGGGACCGUCCCCUCGGUAAUGGCGAAUGGGACCCA [G6U G39A] | 0.0811 |
| GGCCGUCAUGGUCCCAGCCUCCUCGCUGGCGCCGGCUGGGCAACAUUCCGAGGGGACCGUCCCCUCGGUAAUGGCCAAUGGGACCCA [G6U G76C] | 0.676 |
| GGCCGGAAUGGUCCCAGCCUCCUCGCUGGCGCAGGCUGGGCAACAUUCCGAGGGGACCGUCCCCUCGGUAAUGGCGAAUGGGACCCA [C7A C33A] | 0.0639 |
| GGCCGGAAUGGUCCCAGCCUCCUCGCUGGCGCGGGCUGGGCAACAUUCCGAGGGGACCGUCCCCUCGGUAAUGGCGAAUGGGACCCA [C7A C33G] | 0.0519 |
| GGCCGGAAUGGUCCCAGCCUCCUCGCUGGCGCCGGCUGGGCAACAUUCCGUGGGGACCGUCCCCUCGGUAAUGGCGAAUGGGACCCA [C7A A51U] | 0.538 |
| GGCCGUCAUGGUCCCAGCCUCCUCGCUGGCGCCGGCUGGGCAACAUUCCGAGGGGACCGUCCCCUCGGUAAUGGCGAAUGGGACUCA [G6U C85U] | 0.646 |
